Data reported in publication doi:10.1101/2024.03.26.586731.
One block for each substance: values may come before it.

How the values were obtained:
Test in all cases: high-speed atomic force microscopy
[1] = molecular target: IgG1-DNP-E430G (human)
[2] = molecular target: IgG4-DNP-E430G (human)
[3] = molecular target: IgG2-DNP-E430G (human)
[4] = molecular target: IgG3-DNP-E430G (human)

stoichiometry N [1]: < 6
Substance: IgG1-DNP-E430G (antibody)

stoichiometry N [2]: < 6
Substance: IgG4-DNP-E430G (antibody)

stoichiometry N [3]: < 6
Substance: IgG2-DNP-E430G (antibody)

stoichiometry N [4]: < 6
Substance: IgG3-DNP-E430G (antibody)
